Assay results taken from PMC11514477.

Key:
[1] = biological target: macroH2A1 (endogenous; collective term for macroH2A1.1 and macroH2A1.2) (mouse (endogenous in C2C12 and MEF)); assay: proximity ligation; duolink PLA in situ in C2C12 stable knockdown lines (Scramble control, macroH2A2 knockdown); cells extracted before fixation to remove soluble Mcm2; EdU-positive cells; confocal imaging, spots per nucleus counted in FIJI
[2] = biological target: macroH2A1 (endogenous; collective term for macroH2A1.1 and macroH2A1.2) (mouse (endogenous in C2C12 and MEF)); assay: proximity ligation; duolink PLA in situ in control C2C12 cells; high-content screening microscopy (Operetta), nuclear spots of the full cell population counted with Harmony

Chain of macroH2A1 (endogenous; collective term for macroH2A1.1 and macroH2A1.2) (mouse (endogenous in C2C12 and MEF)) (Q9QZQ8 whole entry): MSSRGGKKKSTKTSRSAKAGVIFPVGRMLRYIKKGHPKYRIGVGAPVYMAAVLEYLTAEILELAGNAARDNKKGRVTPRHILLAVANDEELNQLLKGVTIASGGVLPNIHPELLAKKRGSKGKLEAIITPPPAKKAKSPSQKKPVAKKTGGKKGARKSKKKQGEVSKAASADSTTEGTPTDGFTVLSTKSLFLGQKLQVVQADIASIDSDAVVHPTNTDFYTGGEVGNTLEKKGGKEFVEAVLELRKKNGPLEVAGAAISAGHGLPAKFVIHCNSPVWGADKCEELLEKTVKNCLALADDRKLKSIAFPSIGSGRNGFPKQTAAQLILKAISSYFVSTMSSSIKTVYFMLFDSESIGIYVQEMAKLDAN

PLA spots per nucleus (control Scramble cells) (spots per nucleus) [1]: 19.8 | PLA spots per nucleus (macroH2A2 depleted cells) (spots per nucleus) [1]: 18.2 | PLA spots per nucleus (spots per nucleus) [2]: 15.1
Substance: Mcm2 (subunit of the Mcm DNA helicase complex) (from UniProt P97310 1-904) (natural protein)
